{"source": "paper PMC9972897", "about": "(Science immunology, 2023)", "binders": {"B1": {"name": "fp.006 monoclonal antibody (IgG) (antibody, V domains shown)", "VH": "EVQLVESGGGVVQPGGSLRLSCAASGFNFNNYALHWVRQAPGKGLEWVAIISYEARNKKYGVSVMGRFSISRDNSKSIMYLEMNSLRVEDTGVYYCARDLFLSDYDRSGYDPTRGGFDHWGQGTLVTVSS", "VL": "EIVMTQSPATLSVSPGERATLSCRASQSVSSSLAWYQHRFGQAPRLLISGASTRATGIPGRFSGSGSGTEFTLTISSLQSEDVAVYYCQQYGDWPLVTFGGGTKVEIK"}, "B2": {"name": "hr2.016 monoclonal antibody (IgG) (antibody, V domains shown)", "VH": "EVQLLESGGGLVQPGGSLRLSCAASGFMFSKYAMTWVRQTPGKGLEWVSVISGGGGSTYYADSVKGRFTISRDNSKNTLYLQMNSLRAEDTAVYYCAKLLVVFVIDYWGQGALVTVSS", "VL": "EIVLTQSPGTLSLSPGERATLFCRASQSVSSNLAWYQQKPGRAPRLLISGASSRATGIPDRFSGSGSGTDFTLTISRLEPEDFAVYYCQQYGSSPPTFGQGTKVEIK"}, "B3": {"name": "hr2.023 monoclonal antibody (IgG) (antibody, V domains shown)", "VH": "QVQLVQSGAEVKKPGASVKVSCRASENIFSDSYLHWVRQAPGQGLEWMGIITPSGDKTFYAQQFQGRLTMTRDTPTNTLHMDLRGLTSADTAIYYCARQATKGGWDYWGQGTLVTVSS", "VL": "EIVLTQSPGTLSLSPGESATLSCRASQSVTRNYLAWYQQQPGQAPRLLIYGASNRATGVPDRFSGSGSGTDFTLTISRLEPEDFAVYYCQQYGSSPPTFIFGPGTKVDIK"}, "B4": {"name": "sd1.040 monoclonal antibody (IgG) (antibody, V domains shown)", "VH": "QVQLVQSGAEVKKPGASVKVSCKASGYTFTSFYIHWVRQAPGQGLEWMGIIDPSGGSTSYPQKFQGRVTMTRDTSTSTVYMDLSSLRSEDTAVYYCTRDGSAGDNSWFDPWGQGTLVTVSS", "VL": "not shown"}, "B5": {"name": "sd1.040 Fab (Fab, V domains shown)", "VH": "B4 VH", "VL": "not shown"}}, "key": {"[1]": {"molecular_target": "SARS-CoV-2 S Omicron BA.4/BA.5, C-terminally truncated, expressed on 293T cells (SARS-CoV-2, Omicron BA.4/BA.5, strain)", "test": "flow cytometry on cells", "conditions": "one partner purified"}, "[2]": {"molecular_target": "SARS-CoV-2 S Omicron BA.1, C-terminally truncated, expressed on 293T cells (SARS-CoV-2, Omicron BA.1 (B.1.1.529), strain)", "test": "flow cytometry on cells", "conditions": "one partner purified"}, "[3]": {"molecular_target": "SD1-RBD of SARS-CoV-2 S, Beta (SARS-CoV-2, Beta (B.1.351), strain)", "test": "ELISA", "conditions": "both partners purified"}, "[4]": {"molecular_target": "SD1-RBD of SARS-CoV-2 S, Omicron BA.2 (SARS-CoV-2, Omicron BA.2, strain)", "test": "ELISA", "conditions": "both partners purified"}, "[5]": {"molecular_target": "SD1-RBD of SARS-CoV-2 S, Delta (SARS-CoV-2, Delta (B.1.617.2), strain)", "test": "ELISA", "conditions": "both partners purified"}, "[6]": {"molecular_target": "SD1-RBD of SARS-CoV-2 S, Omicron BA.4/BA.5 (SARS-CoV-2 Omicron BA.4/BA.5 (GenBank …, strain))", "test": "ELISA", "conditions": "both partners purified"}, "[7]": {"molecular_target": "SD1-RBD of SARS-CoV-2 S, Omicron BA.1 (SARS-CoV-2, Omicron BA.1 (B.1.1.529), strain)", "test": "ELISA", "conditions": "both partners purified"}, "[8]": {"molecular_target": "SD1-RBD of SARS-CoV-2 S, Omicron BA.2.75 (SARS-CoV-2 Omicron BA.2.75 (GenBank …, strain))", "test": "ELISA", "conditions": "both partners purified"}, "[9]": {"molecular_target": "SD1-RBD of SARS-CoV-2 S, Gamma (SARS-CoV-2, Gamma (B.1.1.28.1), strain)", "test": "ELISA", "conditions": "both partners purified"}, "[10]": {"molecular_target": "SD1-RBD of SARS-CoV-2 S, Alpha (SARS-CoV-2, Alpha (B.1.1.7), strain)", "test": "ELISA", "conditions": "both partners purified"}, "[11]": {"molecular_target": "SARS-CoV-2 S-2P ectodomain trimer (ancestral) (SARS-CoV-2 (ancestral, MN908947), stabilised)", "test": "SPR", "conditions": "both partners purified"}}, "data": [{"binder": "B1", "values": [{"measurement": "fold increase of binding (gMFI) with soluble ACE2", "setting": "[1]", "result": 8.2, "unit": "fold"}, {"measurement": "fold increase of binding (gMFI) with soluble ACE2", "setting": "[2]", "result": 5.3, "unit": "fold"}]}, {"binder": "B2", "values": [{"measurement": "fold increase of binding (gMFI) with soluble ACE2", "setting": "[1]", "result": 4.6, "unit": "fold"}, {"measurement": "fold increase of binding (gMFI) with soluble ACE2", "setting": "[2]", "result": 4.9, "unit": "fold"}]}, {"binder": "B3", "values": [{"measurement": "fold increase of binding (gMFI) with soluble ACE2", "setting": "[1]", "result": 5.3, "unit": "fold"}, {"measurement": "fold increase of binding (gMFI) with soluble ACE2", "setting": "[2]", "result": 5.8, "unit": "fold"}]}, {"binder": "B4", "values": [{"measurement": "binding result", "setting": "[3]", "result": "binds"}, {"measurement": "binding result", "setting": "[4]", "result": "binds"}, {"measurement": "binding result", "setting": "[5]", "result": "binds"}, {"measurement": "binding result", "setting": "[6]", "result": "binds"}, {"measurement": "binding result", "setting": "[7]", "result": "binds"}, {"measurement": "binding result", "setting": "[8]", "result": "binds"}, {"measurement": "binding result", "setting": "[9]", "result": "binds"}, {"measurement": "binding result", "setting": "[10]", "result": "binds"}]}, {"binder": "B5", "values": [{"measurement": "Kd", "setting": "[11]", "result": 200, "unit": "pM"}]}]}
